Results: patent US20220396632A1 (VERSEAU THERAPEUTICS, published 2022)

B1: 03D07 (antibody, IgG4, V domains shown)
VH: EVKLLESGGGLVQPGGSLRLSCAASGFTFSSYALSWVRQAPGKGLEWVSAISGSGGNTYYADSVKGRFTISRDNSKNTLYLQMNSLRAEDTAVYYCAKVVGATNYWGQGTLVTVSS
VL: DIVMTQTPLSLPVTLGQPASISCRSSQSLVYSDGHTYLSWFHQRPGQSPRRLIYKVSIRDSGVPDRFSGSGSGTDFTLKISRVEAEDVGVYYCMQRLQIPLTFGGGTKVEIK
B2: 10F01 (antibody, IgG4, V domains shown)
VH: EVQLVQSGGGLVQPGGSLRLSCAASGFTFSSYAMSWVRQAPGKGLEWVSALRGGDGGTYHADSVKGRFTISGDSSKNTLYLQMNSLRAEDTAVYYCARRMVGAAYAFDIWGQGTMVTVSS
VL: LPVLTQPHSVSESPGKTVTISCTRSSGSIADNFVQWYRQRPGSAPTTVIYEGDQRPSGVPGRFSGSIDSSSNSASLTISGLQTDDEADYYCQSFDSYNRRTHVVFGGGTKLTVL
B3: 20I15 (antibody, V domains shown)
VH: EVKLVESGGGLVQPGGSLSLSCAASGFTFTDYYMSWVRQPPGKALEWLGFIRNKANGYTTEYSASVKGRFTISRDNSQSILYLQMNALRAEDSATYYCARTYLRRGYFDVWGTGTTVTVSS
VL: DIVLTQSPASLAVSLGQRATISCRASKSVSTSGYSYMHWFQQKPGQPPKLLIYLASNLESGVPARFSGSGSGTDFTLNIHPVEEEDAATYYCQHSRELPLTFGAGTKLELK
notes: From mouse immunisation; only variable domains given; also called 20115

Legend:
[1] = target: T1, Biotin PSGL-1(42-62) peptide, unmodified (human, C-terminal Lys-biotin); assay: ELISA, plate-bound target
T1 construct: Residues 42-62 followed by GGGK-biotin; also called WT; wild-type
T1 peptide: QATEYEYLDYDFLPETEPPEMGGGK
Description: (§1) Two ELISA methods were performed. One procedure detected mAb binding to its plate-immobilized target and the other measured the immobilized antibody's ability to capture biotinylated PSGL-1₄₂₋₆₂. […] The plate was incubated for 45 min at 37° C. Plates were washed 3 times with wash buffer (PBS containing 0.05% tween 20, pH 7.4) and a single concentration (2 to 500 nM) or serially diluted (0.002-100 nM) anti-PSGL-1 mAb was added (25 ul/well) in assay buffer into appropriate wells. The plate was incubated for 45 min at 37° C., washed 3 times, and an appropriate HRP-conjugated secondary antibody added (25 ul/well) (HRP goat anti-mouse or anti-human IgG). After 45 min incubation at 37° C., the plate was washed, and antibody bound to plate-immobilized target was determined at A450 nm using HRP substrate (3,3′,5,5′-etramethylbenzidine (TMB)). For each antibody, duplicate values were averaged and assay background was subtracted. Except for the following, ELISAs involving plate-immobilized mAb capturing of biotinylated PSGL-1₄₂₋₆₂ peptides was performed in the same manner as described above: 3 ug/mL/25 ul per well of mAb was coated directly onto microtiter plate wells; biotinylated unmodified or sulfotyrosine PSGL-1₄₂₋₆₂ was serially diluted (3 nM-3 uM) into appropriate wells, and antibody-bound peptide was detected using HRP-streptavidin (Jackson Immunoresearch, Cat. #016-030-084).

[2] = target: T2, Biotin Y46,48,51(SO3) PSGL-1(42-62) peptide (human, sulfotyrosine at Y46, Y48 and Y51; C-terminal Lys-biotin); assay: ELISA, plate-bound target
T2 construct: also called fully sulfated N-terminal PSGL-1 peptide
T2 peptide: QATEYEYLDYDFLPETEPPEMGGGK
Description: as §1

[3] = target: T3, Biotin sY46 PSGL-1(42-62) peptide (human, sulfotyrosine at Y46; C-terminal Lys-biotin); assay: capture ELISA; against 3 x sY peptide
T3 peptide: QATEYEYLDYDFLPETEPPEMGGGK
Description: as §1

[4] = target: T2, Biotin Y46,48,51(SO3) PSGL-1(42-62) …; assay: capture ELISA; against 3 x sY peptide
Description: as §1

[5] = target: T4, Scrambled Y46,48,51(SO3) PSGL-1(42-62) biotin peptide (sulfotyrosine at peptide positions 5, 7 and 10; C-terminal Lys-biotin); assay: ELISA, immobilized biotin peptide
T4 construct: also called scrambled sulfated peptide: biotin
T4 peptide: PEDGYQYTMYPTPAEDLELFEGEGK
Outline: (§2)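 In this ELISA, half-well high binding plates (Corning Cat. #3690) received 3 ug/mL/25 ul per well of biotin-tagged PSGL-1 peptides covering residues 42 to 62, diluted in PBS, pH 7.4, and coated overnight at 4° C. Duplicate readings for each antibody were averaged and the average assay background was subtracted. PSGL-1 protein or peptide was the positive control.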

[6] = target: T5, Biotin sY51 PSGL-1(42-62) peptide (human, sulfotyrosine at Y51; C-terminal Lys-biotin); assay: ELISA, immobilized biotin peptide
T5 construct: also called Y51(SO3) PSGL-1(42-62)
T5 peptide: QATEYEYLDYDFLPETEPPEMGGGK
Outline: as §2

| Binder | EC50 [1] [nM] | EC50 [2] [nM] | EC50/EC50 3x(SO3)Y [3] [fold] | EC50/EC50 3x(SO3)Y [4] [fold] | binding result [5] | EC50 [6] [nM] |
| --- | --- | --- | --- | --- | --- | --- |
| B1 | > 20 | 0.13 | 25 | 1 | – | – |
| B2 | > 500 | 0.13 | ~2000 | 1 | – | – |
| B3 | ~30 | 0.62 | ~10 | 1 | no binding | 178 |
